The numbers were not newly measured in PMC7379096 (ACS Omega, 2020), which cites them from elsewhere.

For the data set the following is noted: stated in the method section, no reference given.

As to Immunoglobulin G [IgG], the pI is 5.5–8.3.
